Assays:
[1] = target: mouse A1 ΔC20 (mouse) (UniProt Q07440); assay: Biacore solution competition against immobilised mouse wtBimBH3
[2] = target: mouse Mcl-1 ΔN151 ΔC23 (mouse) (UniProt P97287); assay: as above
[3] = target: Bcl-2, BCl-xL and Bcl-w; assay: solution competition on Biacore
[4] = target: mouse A1 ΔC20 (mouse) (UniProt Q07440); assay: solution competition on Biacore

Sequence of mouse Mcl-1 ΔN151 ΔC23 (mouse) (P97287 other isoform, or with tags, fused parts or gaps mutant): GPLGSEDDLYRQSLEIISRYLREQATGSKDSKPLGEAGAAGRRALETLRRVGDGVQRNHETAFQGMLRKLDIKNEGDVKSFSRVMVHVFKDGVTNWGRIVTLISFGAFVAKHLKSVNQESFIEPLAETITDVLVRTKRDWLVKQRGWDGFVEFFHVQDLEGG
Sequence of mouse A1 ΔC20 (mouse) (Q07440 other isoform, or with tags, fused parts or gaps mutant): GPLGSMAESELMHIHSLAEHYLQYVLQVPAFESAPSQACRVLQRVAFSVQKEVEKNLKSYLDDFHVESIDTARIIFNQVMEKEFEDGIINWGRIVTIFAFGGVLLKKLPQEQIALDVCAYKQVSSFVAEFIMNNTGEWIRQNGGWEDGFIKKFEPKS

IC50 [1] | IC50 [2] | IC50 [3] | IC50 [4] | Binder
1.8 µM | 1.1 µM |  |  | HRAEVQIARKLQCIADQFHRLHTQ [m Bmf (128-151) BH3 peptide]
0.18 µM | 0.024 µM |  |  | PAELEVECATQLRRFGDKLNFRQKLL [Noxa (18-43) BH3 peptide, human]
0.0093 µM |  |  |  | DIIRNIARHLAQVGDSMDRSIPPG [Bid (81-104) BH3 peptide, human]
15 µM | > 100 µM | 0.0053 to 0.03 µM | 15 µM | NLWAAQRYGRELRRMSDEFVDSFKKG [Bad (103-128) BH3 peptide, human]
